B1: HDV Ribozyme (parent)
chain: GGCCGGCAUGGUCCCAGCCUCCUCGCUGGCGCCGGCUGGGCAACAUUCCGAGGGGACCGUCCCCUCGGUAAUGGCGAAUGGGACCCA

This series covers variants of B1. Kind of series: self-cleavage, relative activity (ratio to wild type); higher = more cleavage; co-transcriptional.
For the variant C32U A71U, the self-cleavage is 0.565.
Then C19A U47C, with 0.148.
Then A42G G53A, with 0.496.
For G5U A8C the value was 0.0875; for A8G C36A, 0.0386.
In the case of C14A C64U, the self-cleavage was 0.743.
Then U20A C48U, with 0; and G31U C61U, with 0.478.
Take C3G C84A: the self-cleavage worked out at 0.564.
G28A G40U: the self-cleavage was found to be 0.0256.
For U65C G74C, the self-cleavage was found to be 0.204.
For A43C U47A the value was 0.506; for U23G G25C, 0; for G1A G53A, 0.0449.
G5C G55C: the self-cleavage came to 0.0898.
C14G C21G: the self-cleavage was 0.0449.
For G5U C26A, the self-cleavage was determined as 0.697.
For C13G A43U the value was 0.0923; for C24G C63G, 0.217.
On to G82U C86U, for which the self-cleavage is 0.554.
For the variant C48G C57G, the self-cleavage was 1.03.
For C33U C62G the value was 0.635; for G68A U72A, 0.396; for U60C U79A, 1.23.
For G34A C75A the value was 0.107; for U23A G28A, 0; for U12C A43U, 0.0923.
Take G52U G81U: the self-cleavage was found to be 0.429.
Consider C15U A87C, for which the self-cleavage was determined as 1.03.
Regarding G39A A51C, the self-cleavage turned out to be 0.389.
As for G6C C86G, the self-cleavage is 0.131.
On to C14G U69G, for which the self-cleavage was 0.604.
Regarding A51C U65C, the self-cleavage is 0.942.
Then U23G C32U, with 0.6; and C13G C85A, with 0; and U9G C62A, with 1.14.
Take C26U A77U: the self-cleavage worked out at 0.641.
Regarding G2U C57U, the self-cleavage was determined as 0.0365.
In the case of C3G A16G, the self-cleavage came to 0.408.
For U23C G81A, the self-cleavage was 0.591.
On to G10A U47G, for which the self-cleavage turned out to be 0.853.
As for G6A U69C, the self-cleavage is 0.631.
Take C30G U72G: the self-cleavage was 0.0923.
As to C15A A56G, the self-cleavage turned out to be 0.587.
With G38U G40C, the self-cleavage stood at 0.0923.
On to C19U G53U, for which the self-cleavage was 0.215.
In the case of C19U G34A, the self-cleavage came out at 0.0468.
In the case of G10U C30A, the self-cleavage is 0.158.
Then C66A U72C, with 0.229; and G31U G53C, with 0.563.
For G11C G50U the value was 0.54; for U27C A42G, 0.
Then C4U G38C, with 0.116; and G31U C64A, with 0.364; and G73C G81C, with 0.0292.
Consider C41A U69A, for which the self-cleavage was 0.831.
For the variant C19U C24A, the self-cleavage is 0.0791.
With G50A A78G, the self-cleavage worked out at 0.923.
For C48G C62G, the self-cleavage was 0.269.
For C13A C61U, the self-cleavage was 0.185.
As to G6C C62A, the self-cleavage is 0.161.
On to C18A A42U, for which the self-cleavage was found to be 0.0437.
As for G1C U27C, the self-cleavage was 0.
For C41U G54A the value was 0.958.
With G59U U60C, the self-cleavage came out at 1.37.
Consider C21U A45U, for which the self-cleavage is 0.283.
On to C4U U72G, for which the self-cleavage is 0.361.
As to C24A U27A, the self-cleavage came to 0.639.
As for G31C U37A, the self-cleavage was 0.115.
On to C18A U23A, for which the self-cleavage was found to be 0.122.
For G74C C84G the value was 0.0875; for G28C U69G, 0.156; for G28A G80A, 0.188.
In the case of C58U G59A, the self-cleavage was found to be 1.12.
In the case of C15G G40C, the self-cleavage is 0.271.
Consider G5U C84A, for which the self-cleavage worked out at 0.302.
Take C22U A42U: the self-cleavage came to 0.138.
In the case of C30G G54U, the self-cleavage amounted to 0.148.
In the case of A51G A87C, the self-cleavage was 0.751.
Then C21U C49G, with 0.102; and G67U C85G, with 0.831; and G6C A78U, with 0.
In the case of U20A G31A, the self-cleavage was 0.155.
For the variant A51G A77C, the self-cleavage is 0.322.
As for C14A A45G, the self-cleavage was found to be 0.703.
On to A45C G74C, for which the self-cleavage is 0.0594.
Then U69G G80C, with 0.219.
Then U9G A71C, with 0.787; and G34U A78U, with 0.121.
For the variant G25C A87U, the self-cleavage came to 0.0773.
On to A56C U72A, for which the self-cleavage came to 0.95.
For G1U C13G the value was 0.369.
Take U37G G59C: the self-cleavage was 0.192.
For G10C G53C the value was 1.02.
On to G1A U20A, for which the self-cleavage is 0.0594.
For G53A U65G, the self-cleavage was determined as 0.708.
Then G2U C14G, with 0.0354; and C48A A51G, with 0.903.
Then C13G A42U, with 0.0811.
G39U C75U: the self-cleavage stood at 0.0923.
For C21A A87G the value was 0.0496.
Then C21A A87U, with 0.0915; and C48G C49G, with 0.906; and C61U A71C, with 0.746.
On to G40A U65G, for which the self-cleavage turned out to be 0.601.
With U27A C49U, the self-cleavage stood at 0.88.
On to G6C G52C, for which the self-cleavage amounted to 0.237.
In the case of G40U G53C, the self-cleavage came out at 0.519.
Take A43C G68U: the self-cleavage is 0.264.
On to C41U A70G, for which the self-cleavage amounted to 0.876.
In the case of U47A G68C, the self-cleavage was determined as 0.982.
Consider C66U G67C, for which the self-cleavage came to 1.16.
On to C3U G76A, for which the self-cleavage was 0.908.
For the variant G25U G29U, the self-cleavage was determined as 0.12.
Then C13G C66U, with 0.0692.
On to C13G C66G, for which the self-cleavage was determined as 0.135.
Take G67A G73U: the self-cleavage amounted to 0.227.
For G11C G59A, the self-cleavage is 0.434.
Then A56U A77U, with 0.623; and C7G G74A, with 0.138.
Regarding G5C U9A, the self-cleavage turned out to be 0.138.
As for C4U C84A, the self-cleavage was determined as 0.712.
For U9G C75A, the self-cleavage stood at 0.201.
Take A45G C85U: the self-cleavage is 1.06.
Regarding C33U G74C, the self-cleavage came to 0.0339.
With C15U C61A, the self-cleavage worked out at 1.27.
G76A C84G: the self-cleavage was determined as 0.939.
Take C62A U65A: the self-cleavage turned out to be 0.332.
For A42G G76A, the self-cleavage is 0.631.
As for G1C G54A, the self-cleavage stood at 0.131.
Then G17U C62U, with 0.602; and A42U U65G, with 0.457.
As for G11C A42C, the self-cleavage stood at 0.0346.
Then U72G U79G, with 0.332; and G1U U37A, with 0.584.
As for A43G U69G, the self-cleavage worked out at 0.867.
For C22A G29U the value was 0.128.
With U37C C66U, the self-cleavage was found to be 1.01.
Regarding C14U C26A, the self-cleavage was found to be 1.08.
For C26U C33U the value was 0.872.
For C21G C75A, the self-cleavage is 0.0415.
On to C48A G82C, for which the self-cleavage is 0.35.
Consider G53C G81C, for which the self-cleavage turned out to be 0.0665.
For G11C G38U, the self-cleavage worked out at 0.0845.
For the variant U12A G50U, the self-cleavage turned out to be 0.767.
G17C C41A: the self-cleavage is 0.111.
As for C30G C32G, the self-cleavage amounted to 0.0627.
In the case of C3G U60A, the self-cleavage was determined as 0.772.
For G2C A45G, the self-cleavage stood at 0.107.
A16U G40C: the self-cleavage came out at 0.365.
Take U37G C85U: the self-cleavage stood at 0.161.
Then C33G U72G, with 0; and G39C G67C, with 0.232.
Then U27G C66G, with 0.629.
For the variant U9A A43C, the self-cleavage came to 0.447.
Take G29A G73U: the self-cleavage amounted to 0.112.
C36U U79A: the self-cleavage amounted to 0.253.
For C33G A43G the value was 0; for G40A G68A, 1.01.
For the variant A16G C21G, the self-cleavage was 0.0875.
As for C36A C75U, the self-cleavage was 0.0963.
Then C33G C48G, with 0.227; and C30A C62G, with 0.321; and C62A A87G, with 0.867.
For the variant G35U G68C, the self-cleavage was 0.4.
For the variant U12C C13U, the self-cleavage was found to be 0.
Take G52C A87U: the self-cleavage stood at 1.

Source of the values: the RNAGym collection of RNA variant scans (doi:10.7554/elife.80360).
